The chains are these.
B1: NVS49-L1A2 (antibody, V domains shown)
VH: ADLVQSGAVVKKPGDSVRISCEAQGYRFPDYIIHWIRRAPGQGPEWMGWMNPMGGQVNIPWKFQGRVSMTRDTSIETAFLDLRGLKSDDTAVYYCVRDRSNGSGKRFESSNWFLDLWGRGTAVTIQS
VL: QSALTQPRSVSASPGQSVTISCTGTHNLVSWCQHQPGRAPKLLIYDFNKRPSGVPDRFSGSGSGGTASLTITGLQDDDDAEYFCWAYEAFGGGTKLTVL
B2: Germ6 (antibody, V domains shown)
VH: B1 VH with I19V, F79Y, I125V
VL: B1 VL with A12G, T72S, D77E
B3: Germ12_NglycoSA_CysCA (antibody, V domains shown)
VH: QVDLVQSGAVVKKPGDSVRVSCEAQGYRFPDYIIHWIRRAPGQGPEWMGWMNPMGGQVNIPWKFQGRVSMTRDTSIETAYMDLRGLRSDDTAVYYCVRDRSNGAGKRFESSNWFLDLWGRGTLVTVSS
VL: B1 VL with A12G, C32A, T72S, D77E
B4: Hydro2 (antibody, V domains shown)
VH: B1 VH with W61Q
VL: B1 VL with A89N
B5: NglycoND (antibody, V domains shown)
VH: B1 VH with N101D
VL: B1 VL
B6: Germ18 (antibody, V domains shown)
VH: B3 VH with D3Q, V10E, D16A, R19K, Q25S, D82E, A104S
VL: B1 VL with A12G, T72S, D77E
B7: Germ23 (antibody, V domains shown)
VH: B3 VH with D3Q, V10E, D16A, R19K, Q25S, D82E, A104S
VL: B1 VL with A12G, Q35H, R38K, L43M, T72S, D76A, D77E, D79E
B8: CysCV (antibody, V domains shown)
VH: B1 VH
VL: B1 VL with C32V
B9: NglycoSA (antibody, V domains shown)
VH: B1 VH with S103A
VL: B1 VL
B10: CysCA (antibody, V domains shown)
VH: B1 VH
VL: B1 VL with C32A
B11: Germ17 (antibody, V domains shown)
VH: B3 VH with A104S
VL: B1 VL with A12G, Q35H, R38K, L43M, T72S, D76A, D77E, D79E
B12: Germ12 (antibody, V domains shown)
VH: B3 VH with A104S
VL: B1 VL with A12G, T72S, D77E
B13: NglycoNDplus6 (antibody, V domains shown)
VH: B1 VH with R27T, S100G, N101D, G104R, K105R, R106H, E108D
VL: B1 VL

Where a chain is given by its changes, count along the chain named.

The first assay concerns the target Clade C DU172.17 gp120 protein (HIV-1 Clade C, DU172.17). Nature of the assay: BLI (Octet), IgG on anti-hIgG Fc sensor, gp120 analyte, 1:1 fit; average of 4 runs. For orientation: In BLI a coated tip is dipped into the sample, and binding shifts an interference pattern.
As a reminder, the Kd is the free concentration of one partner at which half of the binding sites on the other are occupied at equilibrium, for simple one-to-one binding. Low readings indicate tighter binding, high ones weaker binding. The term koff denotes the rate constant with which the complex falls apart. Usually kon stands for the second-order rate constant of association. Low readings indicate slower complex formation, high ones faster complex formation. With B1, the Kd is 25.4 nM, the fold (KD vs average of 4 runs of L1A2) stood at 1 fold, the koff came to 0.000526 s⁻¹ and the kon is 21100 M⁻¹ s⁻¹.

The next assay deals with Clade B BaL gp120 protein (HIV-1 Clade B, BaL). The assay is described as above.
Regarding B1, the Kd came out at 0.54 nM, the fold (KD vs average of 4 runs of L1A2) was 1 fold, the koff came to 4.41e-05 s⁻¹ and the kon was 81300 M⁻¹ s⁻¹.

The target in the next assay is Clade C DU172.17 gp120 protein (HIV-1 Clade C, DU172.17). Nature of the assay: BLI (Octet), IgG on anti-hIgG Fc sensor, gp120 analyte, 1:1 fit.
Consider B2, for which the Kd was determined as 19.3 nM, the fold (KD vs average of 4 runs of L1A2) came to 0.76 fold, the koff was determined as 0.000466 s⁻¹ and the kon was found to be 24100 M⁻¹ s⁻¹.
Taken in the same sequence, the figures for B3 were 18.1 nM, 0.71 fold, 0.000337 s⁻¹ and 18600 M⁻¹ s⁻¹.
The like results for B4 were, in that order, 55.5 nM, 2.18 fold, 0.000974 s⁻¹ and 17600 M⁻¹ s⁻¹.
The like results for B5 were, in that order, 368 nM, 14.5 fold, 0.0183 s⁻¹ and 49700 M⁻¹ s⁻¹.
On to B6, for which the Kd is 21.3 nM, the fold (KD vs average of 4 runs of L1A2) came to 0.84 fold, the koff was found to be 0.000415 s⁻¹ and the kon was 19500 M⁻¹ s⁻¹.
Taken in the same sequence, the figures for B7 were 22.4 nM, 0.88 fold, 0.000368 s⁻¹ and 16400 M⁻¹ s⁻¹.
Take B8: the Kd amounted to 26.7 nM, the fold (KD vs average of 4 runs of L1A2) worked out at 1.05 fold, the koff was found to be 0.000495 s⁻¹ and the kon was 18500 M⁻¹ s⁻¹.
Taken in the same sequence, the figures for B9 were 18.4 nM, 0.72 fold, 0.000303 s⁻¹ and 16500 M⁻¹ s⁻¹.
The like results for B10 were, in that order, 19.6 nM, 0.77 fold, 0.000446 s⁻¹ and 22800 M⁻¹ s⁻¹.
Taken in the same sequence, the figures for B11 were 17.5 nM, 0.69 fold, 0.000331 s⁻¹ and 18900 M⁻¹ s⁻¹.
As to B12, the Kd is 21.5 nM, the fold (KD vs average of 4 runs of L1A2) stood at 0.85 fold, the koff amounted to 0.000438 s⁻¹ and the kon was found to be 20400 M⁻¹ s⁻¹.

Another assay deals with Clade B BaL gp120 protein (HIV-1 Clade B, BaL). Described as above.
For the molecule B2, the Kd was found to be 0.92 nM, the fold (KD vs average of 4 runs of L1A2) turned out to be 1.7 fold, the koff stood at 7.11e-05 s⁻¹ and the kon was determined as 77100 M⁻¹ s⁻¹.
The like results for B3 were, in that order, 0.63 nM, 1.16 fold, 4.92e-05 s⁻¹ and 78300 M⁻¹ s⁻¹.
Taken in the same sequence, the figures for B4 were 0.96 nM, 1.77 fold, 7.18e-05 s⁻¹ and 74700 M⁻¹ s⁻¹.
The like results for B5 were, in that order, 18.7 nM, 34.5 fold, 0.00128 s⁻¹ and 68400 M⁻¹ s⁻¹.
With B6, the Kd amounted to 0.98 nM, the fold (KD vs average of 4 runs of L1A2) worked out at 1.81 fold, the koff is 7.09e-05 s⁻¹ and the kon worked out at 72200 M⁻¹ s⁻¹.
Taken in the same sequence, the figures for B7 were 0.97 nM, 1.79 fold, 7.66e-05 s⁻¹ and 79100 M⁻¹ s⁻¹.
Consider B13, for which the Kd was 11.3 nM, the fold (KD vs average of 4 runs of L1A2) turned out to be 20.9 fold, the koff worked out at 0.0006 s⁻¹ and the kon amounted to 53300 M⁻¹ s⁻¹.
Taken in the same sequence, the figures for B8 were 0.82 nM, 1.52 fold, 6.4e-05 s⁻¹ and 77900 M⁻¹ s⁻¹.
For B9, the Kd is 0.84 nM, the fold (KD vs average of 4 runs of L1A2) worked out at 1.54 fold, the koff came out at 6.12e-05 s⁻¹ and the kon was 73300 M⁻¹ s⁻¹.
Taken in the same sequence, the figures for B10 were 1.1 nM, 2.03 fold, 8.01e-05 s⁻¹ and 71900 M⁻¹ s⁻¹.
Take B11: the Kd turned out to be 0.65 nM, the fold (KD vs average of 4 runs of L1A2) was 1.2 fold, the koff was found to be 5.15e-05 s⁻¹ and the kon is 79300 M⁻¹ s⁻¹.
Taken in the same sequence, the figures for B12 were 0.88 nM, 1.62 fold, 7.09e-05 s⁻¹ and 80800 M⁻¹ s⁻¹.

Values taken from patent US20210040184A1.
